# Experimental data as given in publication PMC4850381 (2016).
# Numbering of substitutions follows the chain as printed.
# T1: tree shrew CRHR1 extracellular domain (tree shrew)
# T1 chain: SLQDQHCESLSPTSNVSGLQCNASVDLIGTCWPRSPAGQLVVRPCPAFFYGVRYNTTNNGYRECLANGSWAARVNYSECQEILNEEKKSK
# T2: human CRHR1 extracellular domain (human)
# T2 chain: T1 chain with P12L, T13A, V16I
# Assays:
# [1] = molecular target: T1, tree shrew CRHR1 extracellular domain; experiment: SPR; BIACORE3000; CRHR1-ECD immobilised on the sensor chip (about 2000 RU, 10 mM NaAc pH 4.5); CRH peptides serially diluted (5 concentrations) in PBS pH 7.4, 30 μl/min, 3 min injection, 2 min dissociation, 25 °C
# [2] = molecular target: T2, human CRHR1 extracellular domain; experiment: SPR
# [3] = molecular target: T1, tree shrew CRHR1 extracellular domain; experiment: SPR
# [4] = molecular target: T2, human CRHR1 extracellular domain; experiment: SPR; BIACORE3000; CRHR1-ECD immobilised on the sensor chip (about 2000 RU, 10 mM NaAc pH 4.5); CRH peptides serially diluted (5 concentrations) in PBS pH 7.4, 30 μl/min, 3 min injection, 2 min dissociation, 25 °C
Kd [1] [nM],Kd [2] [nM],Kd [3] [nM],Kd [4] [nM],Molecule
176,,,,tree shrew corticotrophin-releasing hormone (CRH) peptide
,2050,1760,,SEEPPISLDLTFHLLREVLEMARAEQLAQQAHSNRKLMEMI [tree shrew corticotrophin-releasing hormone (CRH) peptide]
,2110,1460,211,SEEPPISLDLTFHLLREVLEMARAEQLAQQAHSNRKLMEIIGK [human corticotrophin-releasing hormone (CRH) peptide]
